We go through one molecule from US20260241018A1 (BIOCYTOGEN PHARMACEUTICALS BEIJING, published 2026).

The target of test [1] is T1, mouse 5T4 expressed on CHO-S cells (CHO-m5T4 cells) (mouse, UniProt Q9Z0L0 32-361).
T1 sequence: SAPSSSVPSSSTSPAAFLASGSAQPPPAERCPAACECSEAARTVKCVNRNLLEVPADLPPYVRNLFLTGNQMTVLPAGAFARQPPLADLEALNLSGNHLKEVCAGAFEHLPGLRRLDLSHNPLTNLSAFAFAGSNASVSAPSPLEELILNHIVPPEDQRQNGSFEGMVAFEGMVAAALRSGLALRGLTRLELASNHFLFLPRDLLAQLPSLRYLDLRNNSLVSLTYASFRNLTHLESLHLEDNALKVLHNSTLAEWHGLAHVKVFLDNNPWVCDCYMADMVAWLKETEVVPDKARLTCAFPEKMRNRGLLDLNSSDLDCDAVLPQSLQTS
The experiment in a line: flow cytometry, CHO-m5T4 cells. How it is done:
(§1) CHO-h5T4 cells, CHO-m5T4 cells, CHO-fas5T4 cells or CHO-d5T4 cells were transferred to a 96-well plate at a density of 2×10⁵ cells/well respectively. The anti-5T4 antibodies were added to the 96-well plate, and incubated at 4° C. for 30 min. Then, the cells were incubated with the secondary antibody anti-hlgG-Fc-Alex Flour 647 (RL1-H) (Jackson ImmunoResearch Laboratories, Inc., Cat #: 109-606-170) at 4° C. in the dark for 15 minutes before flow cytometry analysis.
(In general: Flow cytometry measures light scatter and fluorescence of single cells or particles in a stream.)

The target in test [2] is T2, dog 5T4 expressed on CHO-S cells (CHO-d5T4 cells) (dog).
T2 chain: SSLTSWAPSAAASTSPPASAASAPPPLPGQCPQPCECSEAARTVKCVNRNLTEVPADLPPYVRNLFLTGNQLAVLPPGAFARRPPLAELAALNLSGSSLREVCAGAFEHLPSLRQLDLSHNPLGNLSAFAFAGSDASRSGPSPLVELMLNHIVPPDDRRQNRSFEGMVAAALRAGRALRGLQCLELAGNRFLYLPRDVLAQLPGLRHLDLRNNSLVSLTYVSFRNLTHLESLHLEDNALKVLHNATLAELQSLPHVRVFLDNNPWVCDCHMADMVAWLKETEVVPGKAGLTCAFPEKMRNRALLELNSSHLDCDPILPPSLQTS
The experiment in a line: flow cytometry, CHO-d5T4 cells. How it is done: as §1

The target of test [3] is T3, h5T4-His protein (human, UniProt Q13641 32-355, limits assumed).
T3 construct: also called His-tagged human 5T4 protein; not shown: His tag
T3 sequence (looked up): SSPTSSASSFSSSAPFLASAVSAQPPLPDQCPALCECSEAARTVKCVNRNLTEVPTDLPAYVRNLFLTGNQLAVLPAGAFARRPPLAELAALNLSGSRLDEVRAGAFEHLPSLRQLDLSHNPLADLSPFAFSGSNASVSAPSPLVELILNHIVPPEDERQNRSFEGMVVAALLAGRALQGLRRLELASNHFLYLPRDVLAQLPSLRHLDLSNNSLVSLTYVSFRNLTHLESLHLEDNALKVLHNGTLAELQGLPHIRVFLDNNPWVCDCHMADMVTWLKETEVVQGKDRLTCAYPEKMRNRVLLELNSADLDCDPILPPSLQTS
The experiment in a line: epitope binding assay, h5T4-His captured; binder = analyte 2; competitor (analyte 1): 35B12. How it is done: (§2) Epitope binding assays were performed using ForteBio Octet system to determine whether two anti-5T4 antibodies target the same or overlapping epitopes. 1×HBS-EP+buffer (10 mM 4-(2-hydroxyethyl)-1-piperazineethanesulfonic acid (HEPES), 150 mM NaCl, 3 mM ethylenediaminetetraacetic acid (EDTA) and 0.05% P20, pH7.4) diluted from HBS-EP+buffer (10×) was used as the running buffer throughout the experiment. About 50 RU of h5T4-His protein was captured at a flow rate of 10 μL/min, and 200 nM of the tested antibody was injected at a flow rate of 30 μL/min to bind the ligand. Another comparison antibody was injected under the same conditions to determine whether the binding of different antibodies interfered with each other. The binding time was 180 s for each antibody.
(§3) The binding value of each antibody was obtained using Data Analysis HT 12.0. To quantify the interference of one antibody binding to another, a binding ratio was calculated to compare each pair of antibodies. The binding ratio is defined as the binding value of the second antibody (analyte 2), divided by the binding value of the first antibody (analyte 1). […] In general, antibody pairs that interfere with each other have the same or overlapping epitopes.

Test [4] addresses T3, h5T4-His protein. In words: epitope binding assay, h5T4-His captured; binder = analyte 2; competitor (analyte 1): 32G8. On the procedure:
as §2, §3

The target of test [5] is T3, h5T4-His protein. In words: epitope binding assay, h5T4-His captured; binder = analyte 2; competitor (analyte 1): 32G1. On the procedure:
as §2, §3

Test [6] deals with T4, 5T4 on NCI-H226 cells, NCI-H2030 cells and HCC827 cells (UniProt Q13641 32-420, limits assumed).
T4 construct: whole, on cells
T4 sequence (looked up): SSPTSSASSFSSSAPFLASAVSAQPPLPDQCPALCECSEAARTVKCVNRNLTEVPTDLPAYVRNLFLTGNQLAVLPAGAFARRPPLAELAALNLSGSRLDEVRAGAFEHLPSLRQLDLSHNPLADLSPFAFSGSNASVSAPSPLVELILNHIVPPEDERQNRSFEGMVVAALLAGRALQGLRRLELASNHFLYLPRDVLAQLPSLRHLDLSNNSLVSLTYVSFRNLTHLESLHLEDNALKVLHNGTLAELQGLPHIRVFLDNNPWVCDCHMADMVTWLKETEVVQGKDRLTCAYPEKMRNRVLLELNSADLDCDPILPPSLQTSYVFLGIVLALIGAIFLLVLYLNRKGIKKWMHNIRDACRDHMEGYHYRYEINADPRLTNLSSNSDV
In words: flow cytometry on NCI-H226 cells, Alexa Fluor 647 anti-human IgG Fc secondary antibody, MFI. How it is done: NCI-H226 cells, NCI-H2030 cells or HCC827 cells were plated in a 96-well plate at a density of 2×10⁵ cells/well. Serially diluted purified anti-5T4 antibody 32G1 or the positive control PF06263507 analog-SI (maximum concentration: 20 μg/mL, 2-fold dilutions, 12 gradients) were added to each well and were incubated at 4° C. for 30 minutes. Then, after one wash with PBS, the cells were incubated with the secondary antibody Alexa Fluor® 647 anti human IgG Fcγ (Jackson ImmunoResearch Laboratories, Inc., Cat #: 109-606-170) at 4° C. for 15 minutes before flow cytometry analysis.
The cells were collected, and the mean fluorescence intensity (MFI) was determined.

The target of test [7] is T3, h5T4-His protein. The experiment in a line: epitope binding assay, h5T4-His captured; binder = analyte 2; competitor (analyte 1): 31G4. On the procedure:
as §2, §3

B1: 32G1 (antibody, V domains shown)
VH: QVQLVQSGGGLVKPGGSLRLSCVASGFTFSDYYMNWVRQAPGKGLEWISYVGTESIYTYYADTVKGRFTISRDNAKNSLYLQMNSLRAEDTALYYCARARDYNLYGMDVWGQGTTVTVSS
VL: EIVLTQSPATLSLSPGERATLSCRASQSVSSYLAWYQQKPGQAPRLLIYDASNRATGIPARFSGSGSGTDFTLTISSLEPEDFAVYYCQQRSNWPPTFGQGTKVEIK
notes: also called anti-5T4 antibody 32G1
B1: the “Percentage of Positive Cells” value in test [1] amounted to 27.1%; in test [2], 56.3%. For the same molecule, the binding ratio in test [3] is -0.02; in test [4], 0.82; in test [5] it was 0.01; in test [7] it was 0.89. The concentration for a half-maximal effect (EC50 (read off the curve)) (in general, the concentration needed to bring the measured effect to its halfway point) in test [6] is about 0.3 µg/mL.
